Here are results for five substances from US20210198328A1, “MODULATED CAS-INHIBITORS” (Universität Heidelberg, priority 2017, published 2021).

Some results are limits rather than exact numbers.

In one experiment the target is T1, SpyCas9 (Streptococcus pyogenes serotype M1, UniProt Q99ZW2).
T1 construct: 2A-GFP (C); host or cells: HEK 293T
Kind of experiment: Cas9 luciferase reporter cleavage assay (dual luciferase). Conditions: HEK 293T, 48 h post-transfection; for effect on Cas9-caused firefly luciferase knockdown (Cas9 inhibition): with or without N-terminal SV40 NLS. It is filed as cell-based. On the procedure:
HEK 293T cells were seeded into black, clear-bottom 96-well plates (Corning) at a density of ˜12.500 cells per well Twenty-four hours after seeding, cells were transfected according to the manufacturer's instructions using Lipofectamine® 2000 and Opti-MEM® reduced serum medium (Thermo Fisher).
For the dCas9-VP64 trans-activation assays, 50 ng/well of each, a plasmid encoding dCas9-VP64_GFP (Addgene plasmid #61422, kind gift from Feng Zhang), a tet-inducible firefly luciferase reporter (Addgene plasmid #64127, kind gift from Moritoshi Sato) and a TetO-targeting guide RNA vector (Addgene plasmid #64161, kind gift from Moritoshi Sato) were co-transfected alongside 1 ng/well pRL-TK (TK-driven Renilla expression vector for normalization; Promega) as well as 1-50 ng/well of the AcrIIA4 constructs and, optionally, stuffer DMA (pcDNA3.1(−) (Invitrogen)). For the reporter cleavage assay, a plasmid encoding an H1 promoter-driven guideRNA as well as firefly luciferase and Renilla luciferase was co-transfected alongside Cas9 expression vector pSpCas9(BB)-2A-GFP (PX453; Addgene plasmid #48138, kind gift from Feng Zhang) as weft as the corresponding AcrIIA4 variant (50 ng/well each). […]
(§1) Six h post-transfection, medium was replaced and the cells were illuminated with 460 nm pulsatile blue light (light intensity 2-3 W/m^2 as measured with a LI-COR LI-250A Light Meter, pulsatile illumination regime is indicated in figure legends) or kept in the dark under otherwise identical conditions for 32-42 h (indicated in figure legends). […] Subsequently, the luciferase activity was measured using the Dual-Glo luciferase assay kit (Promega) according to the manufacturer's protocol. In brief, the cells were lysed using the provided lysis buffer and tire activity of firefly and Renilla luciferase was quantified using a GLOMAX 96 Microplate Luminometer (Promega) with automated injectors (delay time 2 s, integration time 10 s). The relative luciferase activity was calculated by dividing the firefly luciferase photon counts by the Renilla luciferase photon counts. […]

For a further experiment, the target named is T2, dCas9-VP64 (Streptococcus pyogenes serotype M1, UniProt Q99ZW2, D10A/N863A).
T2 construct: host or cells: HEK 293T
Put plainly: dCas9-VP64 luciferase reporter trans-activation assay. The class given is cell-based. Conditions: HEK 293T. On the procedure: HEK 293T cells were seeded into black, clear-bottom 96-well plates (Corning) at a density of ˜12.500 cells per well Twenty-four hours after seeding, cells were transfected according to the manufacturer's instructions using Lipofectamine® 2000 and Opti-MEM® reduced serum medium (Thermo Fisher). […]
as §1
On the technique in general: Reporter assays use an easily measured gene product as a stand-in for the process of interest.

Another experiment relates to HEK 293T cells. Kind of experiment: Light-induced nuclear export, mCherry fluorescence imaging. It is filed as cell-based, human. On the procedure:
FIG. 5: Induced nuclear export inhibits AcrIIA4 function. (A) Schematic of AcrIIA4 construct fused to mCherry-LEXY. LEXY, light-inducible nuclear export system; fusion polypeptide sequence is SEQ ID NO: 114 (encoded by SEQ ID NO: 74). (B) Fluorescence images of HEK 293T cells transfected with the construct in A. mCherry images were taken prior to induction (Preinduction), after 15 min of irradiation with blue light (Post Activation) and after an additional 20 min recovery phase in the absence of blue light (Post Recovery). (C) Line profile of the indicated cell in B, (D) Bar plot showing control of dCas9-VP64-mediated luciferase reporter activation by NLS-AcrIIA4-mCherry-LEXY. […]
To test whether sequestering AcrIIA4 away from the nucleus could be a possible mode for allosteric Acr control we employed a light-inducible nuclear export system (LEXY) previously reported (Niopek et al., 2016), which mediates the nuclear export of proteins fused to the LEXY domain (an AsLOV2-Nuclear Export Signal-Hybrid) in response to blue light. […] The nuclear mChcrry fluorescence fully recovered within 20 min when blue-light irradiation was stopped, showing that AcrIIA4 nuclear export was reversible (FIGS. 5B and Q.

For the next experiment, the target named is T3, Cas9 (Streptococcus pyogenes serotype M1, UniProt Q99ZW2).
T3 construct: expressed in transfected cells; host or cells: HEK 293T
Put plainly: T7 endonuclease assay, CFTR locus editing. The class given is cell-based. Conditions: HEK 293T. On the procedure:
HEK 293T cells were seeded into transparent 96-well plates (Coming). […] Sixteen It post-transfection, cells were irradiated with blue light (7 s ON, 7 s OFF, 3 W/m^2) for 32 h or kept in the dark as control. Subsequently, cells were washed with PBS and lysed using the DirectPCR lysis reagent (PcqLab). A fragment spanning the edited part of the CFTR locus was PCR-amplified using Q5 polymerase and the following primers: CFTR_fw: 5′-[…]-3′, SEQ ID NO: 30; CFTR_re: 5′-[…]-3′, SEQ ID NO: 31). The PCR reaction was run on an agarose gel and the amplicon was purified using a QIAGEN Gel Extraction Kit. Two hundred ng of PCR diluted in 19.5 μl 1× NEB Buffer 2 were then healed up to 95° C. followed by re-annealing in a thermocycler. Next, 0.5 μl of T7 Endonuclease (NEB) were added, and the reaction was incubated at 37° C. for 15 min and then stopped by adding EDTA-containing gel loading dye. Lastly, T7 reactions were analyzed on a 2% agarose gel stained with GelRed (Biotium, Inc.).

As to “AcrIIA4: anti-CRISPR polypeptide of a Listeria monocytogenes prophage, SEQ ID NO: 1 [reference compound]”, the “effect on Cas9-caused firefly luciferase knockdown (Cas9 inhibition)” value with SpyCas9 is given as “strongly reduced”.
In the case of “NLS-AcrIIA4-mCherry-LEXY: NLS-tagged AcrIIA4 fused to mCherry and light-inducible nuclear export system LEXY; SEQ ID NO: 114”, the “dCas9-VP64-mediated luciferase reporter induction upon light-induced nuclear export” value with dCas9-VP64 (blue light vs dark, dose-dependent) is “noticeable increase”. Further, the “time to full recovery of nuclear mCherry fluorescence after blue-light irradiation was stopped” value in the experiment with HEK 293T cells is recorded as no more than 20 min. The “nuclear mCherry fluorescence upon blue-light irradiation” value in the experiment on HEK 293T cells (15 min blue light) was “fast and strong decrease”.
As for “SV40 NLS-AcrIIA4: N-terminal SV40 NLS fusion to AcrIIA4; SEQ ID NO: 115”, the “effect on Cas9-caused firefly luciferase knockdown (Cas9 inhibition)” value in the experiment with SpyCas9 is reported as “full recovery of the luciferase reporter signal”.
With cMyc^PIA NLS-mCherry-AcrIIA4, the “AcrIIA4 activity due to nuclear targeting (dCas9-VP64 inhibition)” value with dCas9-VP64 (48 h post-transfection) is listed as “boost in AcrIIA4 activity”.
Consider “construct 1: LOV2 inserted between AcrIIA4 residues E66/Y67, no linkers; SEQ ID NO: 88”, for which, in the experiment with SpyCas9 (LOV2 insertion screen at 41 positions), the “Cas9 inhibition in the absence of blue light” value is given as “highest”. In addition, in the experiment with Cas9 (Cas9:AcrIIA4 construct 1:1, dark), the “Cas9 inhibition in the dark (CFTR locus editing)” value is on record as “no significant”. In addition, the “light-dependent Cas9 inhibition (CFTR locus editing light vs dark)” value with Cas9 (Cas9:AcrIIA4 construct 1:4, blue light 32 h or dark) is recorded as “inhibited Cas9 in a light-dependent manner”. In addition, the “Cas9 block in the dark (CFTR editing in dark sample)” value with Cas9 (Cas9:AcrIIA4 construct 1:4, dark) is “did not fully block Cas9”.
